Experimental data published in publication PMC9484798.

Molecular target: U6, a member of the malonate semialdehyde decarboxylase (MSAD)-like subgroup of the tautomerase superfamily
Experiment: native MS

stoichiometry N: 3
Substance: U6, a member of the malonate semialdehyde decarboxylase (MSAD)-like subgroup of the tautomerase superfamily (enzyme)
